Test results: article doi:10.1101/2025.11.11.687775
pKd: −log10 of the molar value. Where two headings read alike, the source gives them in different places.

Legend:
[1] = biological target: microtubules of primary rat hippocampal neurons (rat (endogenous in primary hippocampal neurons)) (UniProt P68370)
[2] = biological target: microtubules of primary rat hippocampal neurons (rat (endogenous in primary hippocampal neurons)) (UniProt P68370); test: FRAP + reaction-diffusion simulation
[3] = biological target: microtubules of primary rat hippocampal neurons (rat (endogenous in primary hippocampal neurons)) (UniProt P68370); remark: listed apart in the source
[4] = biological target: microtubules of primary rat hippocampal neurons (rat (endogenous in primary hippocampal neurons)) (UniProt P68370); test: FRAP + reaction-diffusion simulation; remark: listed apart in the source
[5] = biological target: microtubules of Tau-knockout mouse neurons (mouse (endogenous in Tau-KO neurons)) (UniProt P68369)

Substance	FRAP recovery plateau in rat neurons (Figure 3B) [1]	pKd [2]	other results
GFP-tagged Tau 198A single alanine substitution mutant (natural protein)	0.586	–	–
GFP-tagged wild-type human Tau, 0N4R isoform (AcGFP-Tau0N4R-His) (from UniProt P10636-6 1-383) (natural protein)	0.712	5.52	FRAP recovery rate constant (K) in rat neurons (Figure 3D), n = 12 [3]: 0.081; koff [2]: > 0.1 s⁻¹; kon [2]: > 300000 M⁻¹ s⁻¹; koff [4]: > 0.3 s⁻¹; kon [4]: > 100000 M⁻¹ s⁻¹; FRAP recovery rate constant (K), n = 6 (read as Tau-KO neurons) [5]: 0.085

Further substances by rising pKd [2], results first:

FRAP recovery plateau in rat neurons (Figure 3B) [1]	pKd [2]	Substance	other results
0.584	5.87	GFP-tagged Tau 199A single alanine substitution mutant (natural protein)	–
–	6.04	GFP-tagged Tau 198A/199A mutant (2A) (natural protein)	–
–	6.29	GFP-tagged Tau 198A/199A/202A/205A mutant (4A) (natural protein)	–
